Test results as given in patent publication US20150306234.

Test system: T1, BDD FVIII mutein S2094C
T1 sequence: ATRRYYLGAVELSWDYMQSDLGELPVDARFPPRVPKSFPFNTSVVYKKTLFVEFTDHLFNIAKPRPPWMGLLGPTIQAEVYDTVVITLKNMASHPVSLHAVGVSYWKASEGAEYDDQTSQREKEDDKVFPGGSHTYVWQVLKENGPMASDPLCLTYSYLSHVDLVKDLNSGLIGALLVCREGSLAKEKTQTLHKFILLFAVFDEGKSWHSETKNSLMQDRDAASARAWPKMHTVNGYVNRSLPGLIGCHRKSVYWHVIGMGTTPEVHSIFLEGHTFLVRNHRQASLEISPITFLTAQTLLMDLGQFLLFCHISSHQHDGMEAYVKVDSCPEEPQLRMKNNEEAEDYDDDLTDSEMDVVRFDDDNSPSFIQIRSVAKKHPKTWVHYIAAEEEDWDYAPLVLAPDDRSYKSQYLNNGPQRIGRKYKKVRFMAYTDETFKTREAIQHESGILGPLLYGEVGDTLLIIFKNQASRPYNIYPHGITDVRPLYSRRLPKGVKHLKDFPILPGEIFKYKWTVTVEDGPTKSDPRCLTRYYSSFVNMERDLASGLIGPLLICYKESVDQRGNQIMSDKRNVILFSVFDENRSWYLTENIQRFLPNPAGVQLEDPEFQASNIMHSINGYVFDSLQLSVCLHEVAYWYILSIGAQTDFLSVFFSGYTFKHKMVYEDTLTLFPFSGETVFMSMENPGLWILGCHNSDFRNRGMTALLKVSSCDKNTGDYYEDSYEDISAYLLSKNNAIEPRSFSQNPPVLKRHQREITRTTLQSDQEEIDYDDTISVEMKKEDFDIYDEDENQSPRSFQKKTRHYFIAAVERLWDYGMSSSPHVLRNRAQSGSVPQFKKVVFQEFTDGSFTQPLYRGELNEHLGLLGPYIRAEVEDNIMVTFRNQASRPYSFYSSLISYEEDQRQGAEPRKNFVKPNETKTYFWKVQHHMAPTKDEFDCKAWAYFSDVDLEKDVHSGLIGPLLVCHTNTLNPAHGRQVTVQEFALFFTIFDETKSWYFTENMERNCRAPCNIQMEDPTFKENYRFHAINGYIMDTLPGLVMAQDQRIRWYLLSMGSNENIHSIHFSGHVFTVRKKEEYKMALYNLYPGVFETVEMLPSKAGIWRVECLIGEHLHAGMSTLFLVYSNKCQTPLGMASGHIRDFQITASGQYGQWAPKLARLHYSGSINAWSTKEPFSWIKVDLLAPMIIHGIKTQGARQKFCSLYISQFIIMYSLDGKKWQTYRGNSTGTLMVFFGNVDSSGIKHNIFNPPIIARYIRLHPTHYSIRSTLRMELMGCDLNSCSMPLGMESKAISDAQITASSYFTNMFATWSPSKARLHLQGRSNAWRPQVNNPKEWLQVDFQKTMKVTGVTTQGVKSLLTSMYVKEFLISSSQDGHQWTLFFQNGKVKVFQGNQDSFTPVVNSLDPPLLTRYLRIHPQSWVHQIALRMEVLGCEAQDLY

thrombin (Haematologic Technologies, Essex Junction, Vt.)
thrombin cleavage, SDS-PAGE with silver staining: Thrombin digestion of the muteins and control produced the expected cleavage fragments.
